According to US11142588B2, “Polypeptides which bind C-X-C chemokine receptor type 4 (CXCR4) and methods of treating or reducing the risk of fibrosis and cancer” (AdAlta Limited, priority 2015, dated 2021):
Numbering of substitutions follows the chain as printed. Where “and” joins values, the source holds several entries; their conditions need not be identical. Equal entries are not always repeated.

B1: ADCX-668: CXCR4 binding i-body, SEQ ID NO: 26 (protein)
chain: LQVDIVPSQGEISVGESKFFLCQVAGTIWYEQISWFTPNGEKLTPNQQRISVVWNDDSSSTLTIYNANIDDAGIYKCVVWTRPVTSSMHEATVNVKIFQ
modifications: protein sequence encoding ADCX-668
B2: ADCX-6: CXCR4 binding i-body, SEQ ID NO: 17 (protein)
chain: LQVDIVPSQGEISVGESKFFLCQVAGLTSLEGISWFSPNGEKLTPNQQRISVVWNDDSSSTLTIYNANIDDAGIYKCVVEDHPQYSKMEEATVNVKIFQ
modifications: protein sequence encoding ADCX-6
B3: ADCX-306: CXCR4 binding i-body, SEQ ID NO: 29 (protein)
chain: LQVDIVPSQGEISVGESKFFLCQVAGFQEWVNWFSPNGEKLTPNQQRISVVWNDDSSSTLTIYNANIDDAGIYKCVVTMPHTLNNLDVRTEATVNVKIFQ
modifications: protein sequence encoding ADCX306
B4: AM3-466: affinity matured CXCR4 i-body, SEQ ID NO: 64 (protein)
chain: LQVDIVPSQGEISVGESKFFLCQVAGSGSHQRISWFSPNGEKLTPNQQRISVVWNDDSSSTLTIYNANIDDAGIYKCVVWRTGAYRHRALVLGEATVNVKIFQ
modifications: protein sequence encoding AM3-466
B5: AM4-661: affinity matured CXCR4 i-body, SEQ ID NO: 60 (protein)
chain: B4 chain with G28K, H30D, Q31F, W80Y, A84G, A89Y
modifications: protein sequence encoding AM4-661
B6: AM4-613: affinity matured CXCR4 i-body, SEQ ID NO: 52 (protein)
chain: B4 chain with G28K, H30D, Q31V, A84G, A89Y
modifications: protein sequence encoding AM4-613
B7: AM4-386: affinity matured i-body, CDR1 SEQ ID NO: 95, CDR3 SEQ ID NO: 96 (protein)
chain: LQVDIVPSQGEISVGESKFFLCQVAGITSEGHISWFSPNGEKLTPNQQRISVVWNDDSSSTLTIYNANIDDAGIYKCVVETTVFNEVMRLGNGAHVYEATVNVKIFQ
B8: AM4-774: affinity matured i-body, CDR1 SEQ ID NO: 83, CDR3 SEQ ID NO: 84 (protein)
chain: B4 chain with G28K, H30V, Q31I, W80Y, A84G, A89Y
B9: AM4-239: affinity matured i-body, CDR1 SEQ ID NO: 89, CDR3 SEQ ID NO: 90 (protein)
chain: B4 chain with S27A, G28Y, H30D, Q31I, W80Y, A84G, A89Y
B10: AM4-208: affinity matured i-body, CDR1 SEQ ID NO: 85, CDR3 SEQ ID NO: 86 (protein)
chain: B4 chain with G28K, H30E, Q31I, W80Y, A84G, A89Y
B11: AM4-203: affinity matured i-body, CDR1 SEQ ID NO: 101, CDR3 SEQ ID NO: 102 (protein)
chain: B4 chain with G28Y, S29G, H30D, Q31I, W80Y, A84G, Y85W, A89Y
B12: AM3-32: affinity matured i-body, CDR1 SEQ ID NO: 91, CDR3 SEQ ID NO: 92 (protein)
chain: B4 chain with H30G, Q31I, R32T, A84V
B13: AM4-352: affinity matured i-body, CDR1 SEQ ID NO: 97, CDR3 SEQ ID NO: 98 (protein)
chain: B4 chain with G28K, S29D, H30D, Q31I, W80Y, A84G, A89Y
B14: AM3-182: affinity matured i-body, CDR1 SEQ ID NO: 99, CDR3 SEQ ID NO: 100 (protein)
chain: B4 chain with S27V, S29N, Q31I, T82A, A84G
B15: AM4-757: affinity matured i-body, CDR1 SEQ ID NO: 93, CDR3 SEQ ID NO: 94 (protein)
chain: B4 chain with G28K, H30A, Q31I, W80Y, A84S, A89Y

Tested on: not listed separately
Experiment: Bleomycin mouse model of pulmonary fibrosis
Type: in vivo
Conditions: day 4, dose not given
Source text: The optimal dose of Bleomycin is 2 U/mouse and the optimal time for assessing fibrocyte recruitment was confirmed at day 4. At days 4 bronchoalvelolar lavage (BAL) fluids were collected for analysis of SDF-1 concentration. One half of the lung tissue was used to make single cell suspensions of the lung and the cells used for flow cytometry and assayed for CD45+, CXCR4+ and Collagen1+ (fibrocytes). The other half of the lung tissue was Sircol stained for the presence of collagen 1 and RNA will be tested for Col-1, Col-3 and SDF-1.
SDF-1, fibrocytes and collagen deposition were monitored at Day 4. Groups were dosed with the i-body just prior to administration with Bleomycin. One half of the lung tissue was minced and washed in PBS and used to make single cell suspensions of the lung with Collagenase A and dispase treatment. The cells were then used for flow cytometry and assayed for CD45+, CXCR4+ and Collagen1+ fibrocytes. […]

| Molecule | recruitment of fibrocytes into the lungs |
| --- | --- |
| Cc1ccc(=O)n(-c2ccccc2)c1 [Pirfenidone, reference compound] | able to block recruitment of fibrocytes |

Same assay, conditions: positive controls, dose not stated

| Molecule | collagen content of the lung (Sircol) |
| --- | --- |
| Cc1ccc(=O)n(-c2ccccc2)c1 [Pirfenidone, reference compound] | reduction in collagen |

Biological target: CXCR4 (Homo sapiens, UniProt P61073)
Sequence (P61073 whole entry): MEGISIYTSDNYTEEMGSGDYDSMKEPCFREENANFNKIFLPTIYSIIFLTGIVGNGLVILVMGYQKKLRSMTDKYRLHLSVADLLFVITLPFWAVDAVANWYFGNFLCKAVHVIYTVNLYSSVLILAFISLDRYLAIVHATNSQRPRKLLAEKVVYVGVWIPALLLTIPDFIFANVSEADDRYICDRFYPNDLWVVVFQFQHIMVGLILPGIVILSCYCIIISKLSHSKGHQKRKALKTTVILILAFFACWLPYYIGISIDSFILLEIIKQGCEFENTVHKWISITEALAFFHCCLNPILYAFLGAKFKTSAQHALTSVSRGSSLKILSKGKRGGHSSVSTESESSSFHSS
Experiment: β-arrestin BRET assay, antagonist mode with 100 nM SDF-1
Type: cell-based
Design: expressed in transfected cells; host or cells: HEK293FT
Conditions: various concentrations
Source text: (FIGS. 3A-3F and 14) BRET was used in this study to assess the real-time kinetic profiles resulting from any consequent increase in proximity, building upon the previously validated monitoring of GPCR/β-arrestin interactions utilizing BRET. BRET occurs between a complementary Renilla luciferase (Rluc) variant as donor and green fluorescent protein variant as acceptor. Upon Rluc-catalyzed oxidation of the coelenterazine substrate (such as coelenterazine h for first generation BRET (BRET) or EnduRen for extended BRET (eBRET), energy is transferred to the acceptor if within 10 nm, resulting in acceptor light emission peaking at a characteristic wavelength. BRET (3-arrestin assays were carried out as described previously (See, H. B., Seeber, R. M., Kocan, M., Eidne, K. A. and Pfleger, K. D. (2011) ‘Application of G protein-coupled receptor-heteromer identification technology to monitor beta-arrestin recruitment to G protein-coupled receptor heteromers’, Assay Drug Dev Technol, 9(1), 21-30, 10.1089/adt.2010.0336). CXCR4/Rluc8 cDNA constructs were generated from plasmids containing the respective receptor cDNA tagged with Rluc kindly provided by Aron Chakera (Oxford University, United Kingdom). The β-arrestin 2/Venus cDNA construct was prepared previously from pCS2-Venus kindly provided by Atsushi Miyawaki (RIKEN Brain Science Institute, Wako-city, Japan). BRET technology in cells transiently expressing CXCR4/Rluc8 and β-arrestin2/Venus in the presence of 100 nM SDF-1 agonist was evaluated in the presence of the CXCR4 agonist SDF-1/CXCL12 and the i-bodies. HEK293FT cells were maintained at 37° C., 5% CO2 in Complete Media (Dulbecco's modified Eagle's medium containing 0.3 mg/mL glutamine, 100 IU/mL penicillin, and […] streptomycin; Gibco) supplemented with 10% fetal calf serum (FCS) and […] Geneticin (Gibco). Transfections were carried out 24 h after seeding using Genejuice (Novagen) according to manufacturer's instructions. Cells were harvested with 0.05% Trypsin-EDTA (Gibco). HEK293FT cells were transfected using FuGene6 (Promega). 5 μM coelenterazine h (Promega) in HBSS was used as the luciferase substrate solution. Cells were harvested 24 h post-transfection in HEPES-buffered phenol red-free Complete Medium containing 5% FCS and added to a poly-L-lysine-coated white 96-well plate (Nunc). Dose-response curves were generated using BRET, with medium in the plate being replaced with PBS containing […] coelenterazine h (Molecular Probes) and assays carried out immediately. For these assays, 48 h post-transfection, the plate was incubated at […], 5% CO2 for 2 h with […] EnduRen (Promega) to ensure substrate equilibrium was reached. All BRET measurements were taken at 37° C. using the VICTOR Light plate reader with Wallac 1420 software (PerkinElmer). Filtered light emissions were sequentially measured at 400-475 and 520-540 nm. The BRET signal was calculated by subtracting the ratio of 520-540 nm emission over 400-475 nm emission for a vehicle-treated cell sample from the same ratio for a second aliquot of the same cells treated with agonist (in this instance in the presence of SDF-1 or CXCL12) and i-body (ADCX-99, ADCX-272, ACDX-6, ACDX-306, ADCX-668) at various concentrations. Data are mean±S.E.M. of four independent experiments carried out in duplicate.
Binding of the i-bodies to CXCR4 were examined in a β-Arrestin BRET assay as described in See, Heng B et al (2011) Assay and Drug Development Technologies 9(1):21-30. The i-bodes were examined at ten concentrations with and without 100 nM SDF-1 with the addition of ‘vehicle’ and ‘SDF-1+vehicle’ controls in order to characterise if the i-bodies are agonist or antagonists of CXCR4 activity.

| β-arrestin activity | Molecule |
| --- | --- |
| some degree of inhibition | B1 |
| some degree of inhibition | B2 |
| some degree of inhibition | B3 |

Biological target: T1, human CXCR4 (CXCR4 positive lipoparticles) (Homo sapiens, UniProt P61073)
T1 construct: purchased Integral Molecular LEV-101B
T1 sequence (P61073 whole entry): as above
Experiment: Biacore SPR kinetic binding to immobilised CXCR4 lipoparticles
Conditions: CXCR4 expressed on lipoparticles (Table 4)
Procedure: (FIGS. 2A-2C, 5A-5C, 11A-11D, 17A-17B) Kinetic binding analysis of selected i-bodies with immobilized CXCR4 lipoparticles were performed at 25° C. using Biacore T200 instrument (GE Healthcare, Uppsala, Sweden). Streptavidin immobilization was performed in 1×HBS-P+ running buffer (10 mM HEPES, 150 mM NaCl, 0.05% [v/v] Tween-20). […] All binding experiments involving lipoparticles were performed with 1×HBS/BSA (10 mM HEPES, 150 mM NaCl, 1 mg/mL BSA) as instrument running buffer. […] In order to determine binding kinetics, serial dilutions (three-fold) of i-bodies diluted in 1×HBS/BSA were injected over immobilized lipoparticles with the association and dissociation phases monitored for 60 sec and 600 sec, respectively. A control measurement of the instrument running buffer (“zero-buffer” blank) solution was also included for double referencing purposes. Collected experimental data were processed using Scrubber software (www.biologic.com.au). Kinetic parameters (ka=association and kd=dissociation rate constants) and equilibrium dissociation constant (KD=kd/ka) were derived by fitting each set of experimental data to a Langmuir 1:1 binding model. All interaction measurements were performed in triplicate and the derived binding parameters reported as averaged values±standard deviation.

| Molecule | Ka | dissociation rate constant (kd) |
| --- | --- | --- |
| B4 | 465000 M⁻¹ s⁻¹ and 426000 M⁻¹ s⁻¹ | – |
| B5 | 966000 M⁻¹ s⁻¹ and 983000 M⁻¹ s⁻¹ | 9210 M⁻¹ s⁻¹ and 9500 M⁻¹ s⁻¹ |
| B6 | 1.334e+06 M⁻¹ s⁻¹ | 10440 M⁻¹ s⁻¹ |

Same assay, conditions: off-rate, CXCR4 expressed on lipoparticles (Table 3)

| dissociation rate constant (kd) | Molecule |
| --- | --- |
| 0.015 | B7 |
| 0.00784 | B4 |
| 0.0105 | B8 |
| 0.01356 | B9 |
| 0.01283 | B10 |
| 0.01621 | B11 |
| 0.0136 | B12 |
| 0.0152 | B13 |
| 0.00955 | B5 |
| 0.01562 | B14 |
| 0.01236 | B6 |
| 0.01488 | B15 |
